The source of these data is article PMC5477490.

Assay [1] addresses HA ectodomain of A/Washington/05/2011(H1N1) (influenza A virus A/Washington/05/2011(H1N1)). As to the kind of experiment: crystal structure.
Assay [2] shares this target. The assay can be described thus: not stated; purified HA ectodomain in solution; data in Supplementary Fig. 2.
In a further assay the target is 3E1 Fab, P01857;P01834. The following applies: parent: est. 100; read off a plot.

As to “HA ectodomain of A/Washington/05/2011(H1N1) (domain or fragment)”, the stoichiometry N in assay [1] and in assay [2] was 3 in each case.
“full-length, wild-type HA from A/Washington/05/2011 (H1N1) HA1:NAT”: in the assay with 3E1 Fab, P01857;P01834, the percent of parent is 2%.
Take “full-length, wild-type HA from A/Washington/05/2011 (H1N1) HA2:I45F”: the percent of parent with 3E1 Fab, P01857;P01834 was 1%.
With “full-length, wild-type HA from A/Washington/05/2011 (H1N1) HA1:H18Q”, the percent of parent in the assay with 3E1 Fab, P01857;P01834 amounted to 1%.
Regarding “full-length, wild-type HA from A/Washington/05/2011 (H1N1) HA2:D19N”, the percent of parent with 3E1 Fab, P01857;P01834 was found to be 7%.
